Measured values taken from the nanobody polyreactivity screen of Harvey et al. (2022).

assay: yeast display, Sf9 membrane polyspecificity reagent, FACS + sequencing; frameworks hold sequencing errors
Summary of the method: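 A synthetic nanobody library was expressed on Saccharomyces cerevisiae BJ5465 by galactose induction for 36–48 hours. The library was stained for 1 hour at 4 °C with 10% biotinylated, detergent-solubilized Sf9 membrane reagent and enriched with streptavidin microbeads before FACS. Low and high (top ~1%) gates were set on anti-HA fluorescence for expression and streptavidin fluorescence for reagent binding, and each polyreactivity label reflects the gate of origin.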

| Sequence | polyreactivity (PSR sort gate) |
| --- | --- |
| QVQLVESGGRLVQAGGSLRLSCAASGFTFGAYAMGWYRQAPGKERELVATIRYSGDSTYYADSVKGRFTISRDNAKNTVYLQMNSLKPEDTAVSSCAAYSTEGGGSPDWFESFDYWGQGTQVTVSS | low polyreactivity |
| QVQLVESGGRLVQAGGSLRLSCAASGFTFLYYAMGWYRQAPGKERELVATITRTSRTYYADSVKGRFTISRDNAKNTVYLQMNSLKPEDTAVYYCAADTPYLRRRLGMDYWGQGTQVTVSS | high polyreactivity |
| QVQLVESGGRLVQAGGSLRLSCAASGGTFPTNAMGWYTQAPGKERELVAAITSSGVRTYYADSVKGRFTISRDNAKNTVYLQMNSLKPEDTAVYYCNAVTRYVRLTDDDYWGQGSQVTVSS | high polyreactivity |
| QVQLVESGGRLVQAGGSLRLSCAASGIIFFYYTIGWSRQAPGKERELVAAISSGGGTYYADSVKGRFTISRDNAKNTVYLQMNSLKPEDTAVYYCAAVRYSSSSRGGYWGQGTQVTVSS | high polyreactivity |
| QVQLVESGGRLVQAGGSLRLSCAASGITFIDYAMGWYRQAPGKERELVAAIRYSAGSTYYADSVKGRFTISRDNAKNTVYLQMNSLKPEDTAVYYCARTTPSGRQYRRYDYWGQGTQVTVSS | low polyreactivity |
| QVQLVESGGRLVQAGGSLRLSCAASGITFYLNAMGWYRQAPGKERELVADITVSGGSTYYADSVKGRFTISRDNAKNTVYLQMNSLKPEDTAVYYCAADLTISYSQEYYYWGQGNQVTVSS | low polyreactivity |
| QVQLVESGGRLVQAGGSLRLSCAASGLTFSSYAMGWYRQAPGKERQLVAAISRGGGSTYYADSVKGRFTISRDNAKNTGYLQMNSLKPEDTAVYYCAADSGFWWLYDYWGQGTHVTVSS | high polyreactivity |
| QVQLVESGGRLVQAGGSLRLSCAASGLTFVYNTMGWYSQAPGKERKLVAAISSSGGTTYYADSVKGRFTISRDNAKNTVYLQMNSLKPEDTAVYYCAARPSGGYESTRTRDYWGQGTQVTVSS | low polyreactivity |
| QVQLVESGGRLVQAGGSLRLSCAASGRIFATYAMGWYRQAPGKEWQLVAGITSGGRTNYADSVKGRFTISRDNAKNTVYLQMNSLKPEDTAVYYCDKRVWPRDQYGKRNPRMDYWGQGTQETVSS | high polyreactivity |
| QVQLVESGGRLVQAGGSLRLSCAASGRIFKYYAMGWYRPAPGKERELVAAINRDGGRTYYADSVKGRFTISRDTAKISVYLQMNSLKPEDTAVYYCAASYGYVYTTSLDYWGQGTQVTVSS | low polyreactivity |
| QVQLVESGGRLVQAGGSLRLSCAASGRIFRRYAMGWYRQAPGKERELVAAISGSGGSTYYADSVKGRFTISRDNAKNTVYLQMNCLKPEDTAVYYCAARVGLGYDRLKSEYNYWGQGTQVTVSS | high polyreactivity |
| QVQLVESGGRLVQAGGSLRLSCAASGRIFSIYGMGWYRPAPGKERELVAVISGSVGITYYADSVKGRFTISRDNAKNTVYLQMNSLKPEDTAVYYCNAKVRRRKYDYWGQGTQVTVSS | high polyreactivity |
| QVQLVESGGRLVQAGGSLRLSCAASGRIFTWYAMGWYRQAPGKERELVAAISWTGGTTYYADSVKGRFTISRVNAKNTVYLQMNSMKPEDTEVYYCNKVVGFRSNFGGYGYCGQGTQVTVSS | high polyreactivity |
| QVQLVESGGRLVQAGGSLRLSCAASGRIFWWNAMGWYRQAPGKERQFVAAISYRGGSTYYADSVKGRFTISRDNAKNTVYLQMNSLKPEDTAVYYCAADWTYVGPSYSYYYWGQGTQVTVSS | low polyreactivity |
| QVQLVESGGRLVQAGGSLRLSCAASGRIFYNYSMGWYRQAPGKERELVATIRYRGGSTYYADSVKGRFTISRDNAKNTVYLQMNSLKPEDTAVYYCAARFNYNRDYPYYSWGQGTQVNVSS | high polyreactivity |
| QVQLVESGGRLVQAGGSLRLSCAASGRNFGVNAMGWYRQAPGKERELVAAISVSGDSTYYADSVKGRFTISRDNAKNTVYLQMNSLKPEDTAVYYCNAGYTFVPADLTDEYYWGQGTQVTVSS | low polyreactivity |
| QVQLVESGGRLVQAGGSLRLSCAASGRTFDYYDMGWYRQAPGKERELVAAITWGGGSTYYADSVKGRFSISRDNAKNTVYLQMNSLKPEDTAVYYCNADHFGWPWRVRIHEDDYWGQGTQVTVSS | low polyreactivity |
| QVQLVESGGRLVQAGGSLRLSCAASGRTFGGYMGWYRQAPGKESELVAVISSGDSTNYADSVKGRFTITRDNAKNTVYLQMNSVKPEDSAVYYCIAYGSDRLTLDDFWGQGTQVTVSS | low polyreactivity |
| QVQLVESGGRLVQAGGSLRLSCAASGRTFKKYAMGWYRQAPGKERELVAAITGSGGSTYYADSVKGRFTISRDNAKNTVYLQMNSLKPEDTAVYYCAAYAYGVWHSQDGGNFWGQGTQVTVSS | low polyreactivity |
| QVQLVESGGRLVQAGGSLRLSCAASGRTFSAYAMGWYRPAPGKERELVARITSVDSTNYADSVKGRFTISRDNAKNTVYLQMNSPKPEDTAVYYCNATFGYPFVDYDDYWGQGTQVTVSS | low polyreactivity |

| Sequence | polyreactivity (PSR sort gate) |
| --- | --- |
| QVQLVESGGRLVQAGGSLRLSCAASGRTFTRNAMGWYRQAPGKERELVAAISWSGGSTYYADSVKGRFTISRDNAKNTVYLQMNSLKPEDTAVYYCAARIWYYNYWGQGTQVTVSS | high polyreactivity |
| QVQLVESGGRLVQAGGSLRLSCAASGRTFTYYAMGWYRQATGKERELVARITTVGSSTYYADSVKGRFTISRDNAKNTVYLQMNSLKPEETAVYYCNADHLWYSLFDYWGQGTQVTVSS | high polyreactivity |
| QVQLVESGGRLVQAGGSLRLSCAASGRTFYRYAMGWYRQAPGKERELVAAITWSGGSTYYADSVKGRFTTSRDNAKNTVYLQMNSLKPEDTAVYYCAATKRRFVKFDYWGQGTQVTVSS | low polyreactivity |
| QVQLVESGGRLVQAGGSLRLSCAASGRTFYRYVMGWYRQAHGQVRELVAAISEGGGSTFYADSVKGRFTISRDNAKNTVYLQLNSLKPEDTAVYYCAADYYVRGGFFRYDYWGQGTQVTVSS | low polyreactivity |
| QVQLVESGGRLVQAGGSLRLSCAASGRTIGYYAMGWSRQAPGNEWELVAAISGSGGSTYYADSVKGRFTISRDNAKNTVYLQMNSLKPEDTAVYYCAATTQSRRYEYYYWGQGTQVTVSS | high polyreactivity |
| QVQLVESGGRLVQAGGSLRLSCAASGRTIRYNAMGWYRQAPGKERELVASISDGGSTNYADSVKGRFTISRDNAKNTVYLQMNSLKPEDTAVYYCALAGYRRYGYVYWGQGTQVTVSS | low polyreactivity |
| QVQLVESGGRLVQAGGSLRLSCAASGSIFGYNAMGWYRQAPGKESELVAAIDKSGGNTYYADSVKGRFTISRDNANYTVYLQMNSLKPEDTAVDYCAVRAYRHRSGYSYGYWGQGTQVTVSS | high polyreactivity |
| QVQLVESGGRLVQAGGSLRLSCAASGSIFRSNAMGWYRQAPGKERELVATISSSTGSTYYADSVKGRFTISRDNAKNTVYLQMNSLKPEDTAVYNCAAVQPVKSSSGYHFWYYWGQGTQVTVSS | high polyreactivity |
| QVQLVESGGRLVQAGGSLRLSCAASGSIFSKYTMGWYRQAPGKERELVAAISRAGSTYYADSVKGRFTISRDNAKNTVYLQMNSLKPEDTAVYYCNARYRGVYPLIGNRRDYYYWGQGTQVTVSS | high polyreactivity |
| QVQLVESGGRLVQAGGSLRLSCAASGSIFYDNAMGWYRQAPGKERELVAVITVSGDSTYYADSVKGRFTISRDNAKNTVYLQMNSLKPEDTAVYYCNTDAISGSHFWRYITFGYLDDYWGQGTQVTVSS | low polyreactivity |
| QVQLVESGGRLVQAGGSLRLSCAASGSIFYYNVMGWYRQAPGKERELVAAIDIDGSTYYADSVKGRFTISRDNAKNTVYLQMNSLKPEDTAVYYCAADVHTPALYTYAAGDYWGQGTQVTVSS | low polyreactivity |
| QVQLVESGGRLVQAGGSLRLSCAASGSIFYYYAMGWYRQAPGKERELVAAINGGDTYYADSVKGRFTISRDNAKNTVYLQMNSLKPEDTAVYYCAAEGVTVEWDYDYLGQGTQVTVSS | low polyreactivity |
| QVQLVESGGRLVQAGGSLRLSCAASGSTFGWNAMGWYRQAPGKETELVAAISRSGGRTYYADSVKGRFTISRDNANNTVYLQMISLKPEVTAVYYCAADRSTTGGLRGYWGQGTQVTVSS | high polyreactivity |
| QVQLVESGGRLVQAGGSLRLSCAASGSTFIQNAMGWSRQAPGKDRELVAAITSGGGTNYADSVKGRFTISRDNAKNTVYLQMNSLKPEDTAVYYCAAEPFNYDDFWFGWEYLYDYWGQATQVTVSS | low polyreactivity |
| QVQLVESGGRLVQAGGSLRLSCAASGSTFTLYAMGWYRQAPGKERELVAAITWRGGSTFYADSVKGRFTISRDNAKNSVYLQMNSLKPEDTAVYYCAADYYSYVVGRIYYWGQGTQVNVSS | high polyreactivity |
| QVQLVESGGRLVQAGGSLRLSCAASGSTFTVYAMGWYRQAPGKESELVAVITGSGGSTYYADSVKGRFTISRDNAKNTVYLQINSLKPEDTAVYYCAKEPGENWTVSWRDFDYWGQGTQVTVSS | low polyreactivity |
| QVQLVESGGRLVQAGGSLRLSCAASGSTFYTNAMGWYRQSPGKEMELVAAITSNGDSTYYADSVKGRFTISRDNAKNTVYLQMNSLKPEDTAVYYCAAREFYGGYDNNYDYWGQGTQVTVSS | low polyreactivity |
| QVQLVESGGRLVQAGGSLRLSCAASGSTIYPNAMGWYRPAPGTERELVAGITTIGGSTYYADSVKGRFTISRDNAKNTVYLQMNSLKPEDTAVYYCAARWTFSTWIGFDYWGQGTQVTVSS | low polyreactivity |
| QVQLVESGGRLVQAGGSLRLSCAASGSTSTLYAMGWYRQAPGKERELVAAISKSGGRTYYADSVKGRFTISRDNAKNTVYLQMNSLKPEDTAVYYCNTVPGRYRTFDYWGQGTQVTVSS | high polyreactivity |
| QVQLVESGGRLVQAGGSLRLSCAASGTFDLSAMGWYSQAPGKERELVAAITYRGDTTYYADSVKGRFTISRDNAKNTVYLQMNSMKPEDTAVYYCAAEWYYQFSSWYDYWGQGSQVTVSS | high polyreactivity |
